Results taken from US20180360932A1 (OPKO BIOLOGICS, published 2018).

Target: T1, MOD-5014 (FVIIa-CTP3, activated Factor VII-CTP-CTP-CTP) (human, UniProt P08709 61-212, O-glycosylated CTPs, positions not given; gamma-carboxylated (Gla) residues, positions not stated)
T1 construct: also called CTP-modified factor VIIa
T1 sequence (light): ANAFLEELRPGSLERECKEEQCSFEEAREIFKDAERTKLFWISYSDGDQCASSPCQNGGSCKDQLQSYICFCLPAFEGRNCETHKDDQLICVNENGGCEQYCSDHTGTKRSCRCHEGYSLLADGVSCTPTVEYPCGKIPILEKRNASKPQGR
T1 sequence (heavy): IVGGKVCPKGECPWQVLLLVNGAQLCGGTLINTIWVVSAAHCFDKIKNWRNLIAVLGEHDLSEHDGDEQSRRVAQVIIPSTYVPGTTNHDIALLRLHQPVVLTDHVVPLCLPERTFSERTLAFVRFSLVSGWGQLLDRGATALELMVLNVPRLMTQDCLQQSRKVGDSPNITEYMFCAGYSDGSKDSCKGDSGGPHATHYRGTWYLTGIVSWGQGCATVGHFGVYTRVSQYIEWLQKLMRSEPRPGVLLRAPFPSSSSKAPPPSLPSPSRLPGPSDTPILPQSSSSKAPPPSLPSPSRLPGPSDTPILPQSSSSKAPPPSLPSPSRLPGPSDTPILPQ
Test: TF binding read out by the rate of FX activation (FVIIa 0-2 nM, TF 10 pM, FX 135 nM, Pefachrome FXa), fitted with a Hill equation
Description: Cleavage of synthetic substrate is converted to FXa concentration by a standard curve.

- Kd: 3 pM
B1: Tissue factor (TF) (receptor, UniProt P13726 33-295, looked up)
chain: SGTTNTVAAYNLTWKSTNFKTILEWEPKPVNQVYTVQISTKSGDWKSKCFYTTDTECDLTDEIVKDVKQTYLARVFSYPAGNVESTGSAGEPLYENSPEFTPYLETNLGQPTIQSFEQVGTKVNVTVEDERTLVRRNNTFLSLRDVFGKDLIYTLYYWKSSSSGKKTAKTNTNEFLIDVDKGENYCFSVQAVIPSRTVNRKSTDSPVECMGQEKGEFREIFYIIGAVVFVVIILVIILAISLHKCRKAGVGQSWKENSPLNVS
